{
  "source": "patent US20150087577A1",
  "about": "(POLYPHOR, published 2015)",
  "binders": {"B1": {"name": "Example 120 (peptide)", "peptide": "cyclo(YHTCRG[dP]RHWCYQK[dP]P)", "modifications": "disulfide 4-11", "SMILES": "C[C@@H](O)[C@@H]1NC(=O)[C@H](Cc2c[nH]cn2)NC(=O)[C@H](Cc2ccc(O)cc2)NC(=O)[C@@H]2CCCN2C(=O)[C@H]2CCCN2C(=O)[C@H](CCCCN)NC(=O)[C@H](CCC(N)=O)NC(=O)[C@H](Cc2ccc(O)cc2)NC(=O)[C@@H]2CSSC[C@H](NC1=O)C(=O)N[C@@H](CCCNC(=N)N)C(=O)NCC(=O)N1CCC[C@@H]1C(=O)N[C@@H](CCCNC(=N)N)C(=O)N[C@@H](Cc1c[nH]cn1)C(=O)N[C@@H](Cc1c[nH]c3ccccc13)C(=O)N2"}, "B2": {"name": "Example 118 (peptide)", "peptide": "cyclo(YRTCRG[dP][4Pal]RWCYQK[dP]P)", "modifications": "disulfide 4-11", "SMILES": "C[C@@H](O)[C@@H]1NC(=O)[C@H](CCCNC(=N)N)NC(=O)[C@H](Cc2ccc(O)cc2)NC(=O)[C@@H]2CCCN2C(=O)[C@H]2CCCN2C(=O)[C@H](CCCCN)NC(=O)[C@H](CCC(N)=O)NC(=O)[C@H](Cc2ccc(O)cc2)NC(=O)[C@@H]2CSSC[C@H](NC1=O)C(=O)N[C@@H](CCCNC(=N)N)C(=O)NCC(=O)N1CCC[C@@H]1C(=O)N[C@@H](Cc1ccncc1)C(=O)N[C@@H](CCCNC(=N)N)C(=O)N[C@@H](Cc1c[nH]c3ccccc13)C(=O)N2"}, "B3": {"name": "Example 113 (peptide)", "peptide": "cyclo(YR[Cit]CRG[dP]RRYC[Cit]YK[dP]P)", "modifications": "disulfide 4-11", "SMILES": "N=C(N)NCCC[C@@H]1NC(=O)[C@@H]2CSSC[C@H](NC(=O)[C@H](Cc3ccc(O)cc3)NC(=O)[C@H](CCCNC(=N)N)NC(=O)[C@H](CCCNC(=N)N)NC(=O)[C@H]3CCCN3C(=O)CNC1=O)C(=O)N[C@@H](CCCNC(N)=O)C(=O)N[C@@H](Cc1ccc(O)cc1)C(=O)N[C@@H](CCCCN)C(=O)N1CCC[C@@H]1C(=O)N1CCC[C@H]1C(=O)N[C@@H](Cc1ccc(O)cc1)C(=O)N[C@@H](CCCNC(=N)N)C(=O)N[C@@H](CCCNC(N)=O)C(=O)N2"}, "B4": {"name": "Example 121 (peptide)", "peptide": "cyclo(YR[Cit]CRG[dP]RRWCY[Cit]Q[dP]P)", "modifications": "disulfide 4-11", "SMILES": "N=C(N)NCCC[C@@H]1NC(=O)[C@@H]2CSSC[C@H](NC(=O)[C@H](Cc3c[nH]c4ccccc34)NC(=O)[C@H](CCCNC(=N)N)NC(=O)[C@H](CCCNC(=N)N)NC(=O)[C@H]3CCCN3C(=O)CNC1=O)C(=O)N[C@@H](Cc1ccc(O)cc1)C(=O)N[C@@H](CCCNC(N)=O)C(=O)N[C@@H](CCC(N)=O)C(=O)N1CCC[C@@H]1C(=O)N1CCC[C@H]1C(=O)N[C@@H](Cc1ccc(O)cc1)C(=O)N[C@@H](CCCNC(=N)N)C(=O)N[C@@H](CCCNC(N)=O)C(=O)N2"}, "B5": {"name": "Example 114 (peptide)", "peptide": "cyclo(GR[Cit]CRG[dP]RR[2Nal]CY[Cit]K[dP]P)", "modifications": "disulfide 4-11", "SMILES": "N=C(N)NCCC[C@@H]1NC(=O)CNC(=O)[C@@H]2CCCN2C(=O)[C@H]2CCCN2C(=O)[C@H](CCCCN)NC(=O)[C@H](CCCNC(N)=O)NC(=O)[C@H](Cc2ccc(O)cc2)NC(=O)[C@@H]2CSSC[C@H](NC(=O)[C@H](CCCNC(N)=O)NC1=O)C(=O)N[C@@H](CCCNC(=N)N)C(=O)NCC(=O)N1CCC[C@@H]1C(=O)N[C@@H](CCCNC(=N)N)C(=O)N[C@@H](CCCNC(=N)N)C(=O)N[C@@H](Cc1ccc3ccccc3c1)C(=O)N2"}, "B6": {"name": "Example 115 (peptide)", "peptide": "cyclo(YR[Cit]CRG[dP]RR[2Nal]CYQK[dP]P)", "modifications": "disulfide 4-11", "SMILES": "N=C(N)NCCC[C@@H]1NC(=O)[C@@H]2CSSC[C@H](NC(=O)[C@H](Cc3ccc4ccccc4c3)NC(=O)[C@H](CCCNC(=N)N)NC(=O)[C@H](CCCNC(=N)N)NC(=O)[C@H]3CCCN3C(=O)CNC1=O)C(=O)N[C@@H](Cc1ccc(O)cc1)C(=O)N[C@@H](CCC(N)=O)C(=O)N[C@@H](CCCCN)C(=O)N1CCC[C@@H]1C(=O)N1CCC[C@H]1C(=O)N[C@@H](Cc1ccc(O)cc1)C(=O)N[C@@H](CCCNC(=N)N)C(=O)N[C@@H](CCCNC(N)=O)C(=O)N2"}, "B7": {"name": "Example 112 (peptide)", "peptide": "cyclo(YR[Cit]CRG[dP]RRYCY[Cit]K[dP]P)", "modifications": "disulfide 4-11", "SMILES": "N=C(N)NCCC[C@@H]1NC(=O)[C@@H]2CSSC[C@H](NC(=O)[C@H](Cc3ccc(O)cc3)NC(=O)[C@H](CCCNC(=N)N)NC(=O)[C@H](CCCNC(=N)N)NC(=O)[C@H]3CCCN3C(=O)CNC1=O)C(=O)N[C@@H](Cc1ccc(O)cc1)C(=O)N[C@@H](CCCNC(N)=O)C(=O)N[C@@H](CCCCN)C(=O)N1CCC[C@@H]1C(=O)N1CCC[C@H]1C(=O)N[C@@H](Cc1ccc(O)cc1)C(=O)N[C@@H](CCCNC(=N)N)C(=O)N[C@@H](CCCNC(N)=O)C(=O)N2"}, "B8": {"name": "Example 22 (peptide)", "peptide": "cyclo(YR[Cit]FRVPRR[2Nal]VY[Cit]K[dP]P)", "SMILES": "CC(C)[C@@H]1NC(=O)[C@H](Cc2ccc3ccccc3c2)NC(=O)[C@H](CCCNC(=N)N)NC(=O)[C@H](CCCNC(=N)N)NC(=O)[C@@H]2CCCN2C(=O)[C@H](C(C)C)NC(=O)[C@H](CCCNC(=N)N)NC(=O)[C@H](Cc2ccccc2)NC(=O)[C@H](CCCNC(N)=O)NC(=O)[C@H](CCCNC(=N)N)NC(=O)[C@H](Cc2ccc(O)cc2)NC(=O)[C@@H]2CCCN2C(=O)[C@H]2CCCN2C(=O)[C@H](CCCCN)NC(=O)[C@H](CCCNC(N)=O)NC(=O)[C@H](Cc2ccc(O)cc2)NC1=O"}, "B9": {"name": "Example 117 (peptide)", "peptide": "cyclo(YR[Cit]CRG[dP]R[Orn]WCY[Cit]K[dP]P)", "modifications": "disulfide 4-11", "SMILES": "N=C(N)NCCC[C@@H]1NC(=O)[C@@H]2CSSC[C@H](NC(=O)[C@H](Cc3c[nH]c4ccccc34)NC(=O)[C@H](CCCN)NC(=O)[C@H](CCCNC(=N)N)NC(=O)[C@H]3CCCN3C(=O)CNC1=O)C(=O)N[C@@H](Cc1ccc(O)cc1)C(=O)N[C@@H](CCCNC(N)=O)C(=O)N[C@@H](CCCCN)C(=O)N1CCC[C@@H]1C(=O)N1CCC[C@H]1C(=O)N[C@@H](Cc1ccc(O)cc1)C(=O)N[C@@H](CCCNC(=N)N)C(=O)N[C@@H](CCCNC(N)=O)C(=O)N2"}, "B10": {"name": "Example 119 (peptide)", "peptide": "cyclo(Y[4Pal]TCRG[dP]RRWCYQK[dP]P)", "modifications": "disulfide 4-11", "SMILES": "C[C@@H](O)[C@@H]1NC(=O)[C@H](Cc2ccncc2)NC(=O)[C@H](Cc2ccc(O)cc2)NC(=O)[C@@H]2CCCN2C(=O)[C@H]2CCCN2C(=O)[C@H](CCCCN)NC(=O)[C@H](CCC(N)=O)NC(=O)[C@H](Cc2ccc(O)cc2)NC(=O)[C@@H]2CSSC[C@H](NC1=O)C(=O)N[C@@H](CCCNC(=N)N)C(=O)NCC(=O)N1CCC[C@@H]1C(=O)N[C@@H](CCCNC(=N)N)C(=O)N[C@@H](CCCNC(=N)N)C(=O)N[C@@H](Cc1c[nH]c3ccccc13)C(=O)N2"}},
  "note": "Bridges are numbered along the chain shown (N, C = ends). Primed or numbered codes have the meaning given here. [ ]: non-standard residue; d: D form. A8″‑42 = template L-Pro residue whose 4-amino group is acylated with CH3-(OCH2CH2)2-OCH2-CO (2-[2-(2-methoxyethoxy)ethoxy]acetyl), per the notes; 2Nal = N[C@@H](Cc1ccc2ccccc2c1)C(=O)O; 4Pal = N[C@@H](Cc1ccncc1)C(=O)O; Cit = NC(=O)NCCC[C@H](N)C(=O)O; Orn = NCCC[C@H](N)C(=O)O",
  "data": [
    {"target": "human CXCR4 (human, UniProt P61073 1-352)", "sequence (P61073 whole entry)": "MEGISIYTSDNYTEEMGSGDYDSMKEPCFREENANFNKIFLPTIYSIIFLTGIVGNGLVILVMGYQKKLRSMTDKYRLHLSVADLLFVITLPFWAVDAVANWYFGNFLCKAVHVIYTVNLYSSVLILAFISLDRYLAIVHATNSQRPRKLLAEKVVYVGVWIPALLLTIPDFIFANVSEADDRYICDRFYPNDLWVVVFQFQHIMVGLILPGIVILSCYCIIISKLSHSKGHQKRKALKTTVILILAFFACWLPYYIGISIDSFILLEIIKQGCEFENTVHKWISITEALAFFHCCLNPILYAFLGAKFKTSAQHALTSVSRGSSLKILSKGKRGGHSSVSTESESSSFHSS", "test": "cell-based or functional assay", "units": {"IC50 (nM) Ca2+ assay (method 2)": "nM", "IC50 (nM) Ca2+ assay (method 1)": "nM"}, "values": [
      {"binder": "cyclo(YR[Cit]CRG[dP]RRWCY[Cit]K[dP][A8″‑42]) (disulfide 4-11)", "note": "[Example 116]", "IC50 (nM) Ca2+ assay (method 2)": 14.5},
      {"binder": "B1", "IC50 (nM) Ca2+ assay (method 2)": 8.1},
      {"binder": "B2", "IC50 (nM) Ca2+ assay (method 2)": 7.6},
      {"binder": "B3", "IC50 (nM) Ca2+ assay (method 2)": 0.62},
      {"binder": "B4", "IC50 (nM) Ca2+ assay (method 2)": 6.5},
      {"binder": "B5", "IC50 (nM) Ca2+ assay (method 2)": 1.3},
      {"binder": "B6", "IC50 (nM) Ca2+ assay (method 2)": 2.7},
      {"binder": "B7", "IC50 (nM) Ca2+ assay (method 2)": 7.8},
      {"binder": "B8", "IC50 (nM) Ca2+ assay (method 1)": 300},
      {"binder": "B9", "IC50 (nM) Ca2+ assay (method 2)": 3.4},
      {"binder": "B10", "IC50 (nM) Ca2+ assay (method 2)": 9.4}
    ]}
  ]
}
